Measured values as given in article PMC10397247.
One block for each binder: values may come before it.

Key:
[1] = molecular target: T1, 4H816-AA; assay: two-hybrid library CCmax; details: mean of both orientations;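 also: natural log of median RNA to DNA barcode read ratio; higher means stronger binding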
T1 chain: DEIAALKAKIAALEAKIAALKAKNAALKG

[2] = molecular target: T2, 4H3134-AA; assay: two-hybrid library CCmax; details: mean of both orientations;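 also: natural log of median RNA to DNA barcode read ratio; higher means stronger binding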
T2 chain: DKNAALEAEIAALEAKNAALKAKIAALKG

[3] = molecular target: T3, 4H775-AA; assay: two-hybrid library CCmax; details: mean of both orientations;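 also: natural log of median RNA to DNA barcode read ratio; higher means stronger binding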
T3 chain: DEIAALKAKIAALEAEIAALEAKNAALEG

[4] = molecular target: T4, 4H278-AA; assay: two-hybrid library CCmax; details: mean of both orientations;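 also: natural log of median RNA to DNA barcode read ratio; higher means stronger binding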
T4 chain: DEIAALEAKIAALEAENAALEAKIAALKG

[5] = molecular target: T5, 4H3940-AA; assay: two-hybrid library CCmax; details: mean of both orientations;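 also: natural log of median RNA to DNA barcode read ratio; higher means stronger binding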
T5 chain: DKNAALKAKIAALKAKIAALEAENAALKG

[6] = molecular target: T6, 4H390-AA; assay: two-hybrid library CCmax; details: mean of both orientations;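 also: natural log of median RNA to DNA barcode read ratio; higher means stronger binding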
T6 chain: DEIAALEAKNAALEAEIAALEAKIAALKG

[7] = molecular target: T7, 4H2873-AA; assay: two-hybrid library CCmax; details: mean of both orientations
T7 chain: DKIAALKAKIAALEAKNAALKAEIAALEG

[8] = molecular target: T8, 4H510-AA; assay: two-hybrid library CCmax; details: mean of both orientations
T8 chain: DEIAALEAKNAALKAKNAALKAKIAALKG

[9] = molecular target: T9, 4H2985-AA; assay: two-hybrid library CCmax; details: mean of both orientations
T9 chain: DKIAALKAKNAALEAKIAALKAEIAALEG

[10] = molecular target: T10, 4H2687-AA; assay: two-hybrid library CCmax
T10 chain: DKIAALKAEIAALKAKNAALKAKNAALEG

[11] = molecular target: T11, 4H87-AA; assay: two-hybrid library CCmax; details: mean of both orientations
T11 chain: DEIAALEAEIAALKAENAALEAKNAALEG

[12] = molecular target: T12, 4H2705-AA; assay: two-hybrid library CCmax; details: mean of both orientations
T12 chain: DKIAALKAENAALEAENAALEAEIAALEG

[13] = molecular target: T13, 4H2758-AA; assay: two-hybrid library CCmax; details: mean of both orientations
T13 chain: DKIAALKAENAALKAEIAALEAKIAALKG

[14] = molecular target: T14, 4H3409-AA; assay: two-hybrid library CCmax; details: mean of both orientations
T14 chain: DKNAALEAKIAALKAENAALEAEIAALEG

[15] = molecular target: T15, 4H3625-AA; assay: two-hybrid library CCmax; details: mean of both orientations
T15 chain: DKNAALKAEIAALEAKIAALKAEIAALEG

[16] = molecular target: T16, P7bH1; assay: two-hybrid library CCNG1
T16 chain: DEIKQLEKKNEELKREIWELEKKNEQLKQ

[17] = molecular target: T17, P9bH1; assay: two-hybrid library CCNG1
T17 chain: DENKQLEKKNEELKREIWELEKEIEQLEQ

[18] = molecular target: T18, P8bH1; assay: two-hybrid library CCNG1
T18 chain: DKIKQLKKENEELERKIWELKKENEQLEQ

[19] = molecular target: T19, P6bH1; assay: two-hybrid library CCNG1
T19 chain: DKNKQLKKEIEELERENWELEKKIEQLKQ

[20] = molecular target: T20, P6; assay: two-hybrid library CC1; details: mean of both orientations
T20 chain: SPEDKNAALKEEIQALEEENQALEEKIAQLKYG

[21] = molecular target: T21, P7mS; assay: two-hybrid library CC1; details: mean of both orientations
T21 chain: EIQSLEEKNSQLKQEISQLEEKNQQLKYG

[22] = molecular target: T22, P9; assay: two-hybrid library CC1; details: mean of both orientations
T22 chain: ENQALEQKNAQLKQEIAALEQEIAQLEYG

[23] = molecular target: T23, P5mS; assay: two-hybrid library CC1; details: mean of both orientations
T23 chain: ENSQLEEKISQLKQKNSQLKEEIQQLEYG

[24] = molecular target: T24, P8; assay: two-hybrid library CC1; details: mean of both orientations
T24 chain: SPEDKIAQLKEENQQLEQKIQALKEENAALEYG

[25] = molecular target: T25, P6SC2; assay: two-hybrid library CC1; details: mean of both orientations
T25 chain: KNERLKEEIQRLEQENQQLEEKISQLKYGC

[26] = molecular target: T26, P5SC2; assay: two-hybrid library CC1
T26 chain: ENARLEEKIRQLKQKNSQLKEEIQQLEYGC

[27] = molecular target: T27, P6mS; assay: two-hybrid library CC1; details: mean of both orientations
T27 chain: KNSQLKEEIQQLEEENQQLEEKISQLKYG

[28] = molecular target: T28, P6SC1; assay: two-hybrid library CC1; details: mean of both orientations
T28 chain: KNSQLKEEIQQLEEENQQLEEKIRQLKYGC

[29] = molecular target: T29, P7; assay: two-hybrid library CC1; details: mean of both orientations
T29 chain: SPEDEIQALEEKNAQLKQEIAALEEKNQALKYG

[30] = molecular target: T30, P8mS; assay: two-hybrid library CC1; details: mean of both orientations
T30 chain: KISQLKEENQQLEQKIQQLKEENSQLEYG

interaction score [1]: -1.46
interaction score [2]: -1.43
interaction score [3]: -0.777
interaction score [4]: 1.88
interaction score [5]: -1.7
interaction score [6]: -1.43
interaction score [7]: -1.74
interaction score [8]: -1.76
interaction score [9]: -1.59
interaction score [10]: -0.386
interaction score [11]: 1.53
interaction score [12]: -1.7
interaction score [13]: -1.78
interaction score [14]: -0.818
interaction score [15]: -0.539
B1: 4H2687-AA (peptide)
chain: DKIAALKAEIAALKAKNAALKAKNAALEG

interaction score [16]: 1.39
interaction score [17]: 0.0468
interaction score [18]: 0.525
interaction score [19]: -0.419
B2: P6bH1 (peptide)
chain: DKNKQLKKEIEELERENWELEKKIEQLKQ

interaction score [17]: -0.01
interaction score [18]: -0.114
B3: P8bH1 (peptide)
chain: DKIKQLKKENEELERKIWELKKENEQLEQ

B4: P5SC2 (peptide)
chain: ENARLEEKIRQLKQKNSQLKEEIQQLEYGC
interaction score [20]: 0.225
interaction score [21]: -2.77
interaction score [22]: -2.39
interaction score [23]: -2.94
interaction score [24]: -1.1
interaction score [25]: 0.408
interaction score [26]: -2.86
interaction score [27]: 0.24
interaction score [28]: 0.316
interaction score [29]: -2.39
interaction score [30]: -2.45

interaction score [16]: -0.0541
interaction score [17]: -0.3
interaction score [18]: 1.89
B5: P7bH1 (peptide)
chain: DEIKQLEKKNEELKREIWELEKKNEQLKQ
